The values below come from paper PMC5374546.

Test [1] deals with Fcε3-4 Fcε3-4 (Homo sapiens) (UniProt P01854). The test is described as follows: sedimentation equilibrium. To be noted: cited from earlier work.
Test [2] addresses IgE-Fc (Val224-Lys547, with glycosylation-site double mutation N265Q and N371Q) (human). Put plainly: ITC; 260 uM derCD23 in the syringe titrated into 12.5 uM IgE-Fc dimer in the cell; 25 mM Tris-HCl pH 7.4, 125 mM NaCl, 4 mM CaCl2; 25 °C; iTC200; two-site (2:1) binding model. In general terms: Isothermal titration calorimetry measures the heat released or taken up as one component is titrated into another.

UniProt P01854, sequence (P01854 209-426): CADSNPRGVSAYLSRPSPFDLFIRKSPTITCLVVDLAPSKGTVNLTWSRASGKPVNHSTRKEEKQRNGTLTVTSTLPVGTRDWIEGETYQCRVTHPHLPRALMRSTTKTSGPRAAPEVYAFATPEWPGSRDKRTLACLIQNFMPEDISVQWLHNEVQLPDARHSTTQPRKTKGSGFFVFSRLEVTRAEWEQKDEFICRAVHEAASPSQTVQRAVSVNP

What is called Kd is a measure of binding affinity in units of concentration. Take derCD23 derCD23 (from UniProt P06734): the Kd in test [1] is 10 µM.

B1: derCD23 (soluble monomeric lectin-like head domain of human CD23, Ser156-Glu298) (domain or fragment)
chain: SGFVCNTCPEKWINFQRKCYYFGKGTKQWVHARYACDDMEGQLVSIHSPEEQDFLTKHASHTGSWIGLRNLDLKGEFIWVDGSHVDYSNWAPGEPTSRSQGEDCVMMRGSGRWNDAFCDRKLGAWVCDRLATCTPPASEGSAE
As for B1, in test [2], the KD1 (site 1 of the two-site model) stood at 1.2 µM, the KD2 (site 2 of the two-site model) is 14.4 µM, the dH1 (site 1 of the two-site model) is -7.2 kcal/mol and the dH2 (site 2 of the two-site model) is -3.7 kcal/mol. The molecule also showed a stoichiometry N (derCD23 per IgE-Fc dimer) in test [2] of 2.
